Consider 42 molecules from publication PMC10681739, “High-throughput data and modeling reveal insights into the mechanisms of cooperative DNA-binding by transcription factor proteins”.

Positions count from the first letter of the chain named.

The target of the data set is ETS1:RUNX1 (Homo sapiens, UniProt P14921;Q01196 full;full). Description: gcPBM; 1 nM ETS1 + 25 nM RUNX1, anti-ETS1 signal, normalised. The note with it: tags: N-terminal GST (pDEST15), kept (PMC6008103); copies: 1;1; label: surface-attached array probe.

B1: Table S2 A row 791 (dsDNA)
DNA 1: CGGCAGGCAAGCAGGAAACCGCGAGTGGAGAAAGGG
DNA 2: CCCTTTCTCCACTCGCGGTTTCCTGCTTGCCTGCCG
For the molecule B1, the binding signal was 2990 PBM fluorescence, median of replicate spots.

B2: Table S2 A row 18 (dsDNA)
DNA 1: GAGGCAGGCGGATGTCAGTGTGGTTAGAGCACAGTG
DNA 2: CACTGTGCTCTAACCACACTGACATCCGCCTGCCTC
Take B2: the binding signal is 3320 PBM fluorescence, median of replicate spots.

B3: Table S2 A row 149 (dsDNA)
DNA 1: TTCAACAGGATATTGCTTTGTTACCACAGGCCCTTT
DNA 2: AAAGGGCCTGTGGTAACAAAGCAATATCCTGTTGAA
In the case of B3, the binding signal was 3020 PBM fluorescence, median of replicate spots.

B4: Table S2 A row 548 (dsDNA)
DNA 1: CTCTCACTTCCCGTGTGAGAAAAACCACAGAAAAGC
DNA 2: GCTTTTCTGTGGTTTTTCTCACACGGGAAGTGAGAG
Consider B4, for which the binding signal was 2080 PBM fluorescence, median of replicate spots.

B5: Table S2 A row 1553 (dsDNA)
DNA 1: GAAGGAAGTGGAGACAGTAAGGGGAAACCACAAACC
DNA 2: GGTTTGTGGTTTCCCCTTACTGTCTCCACTTCCTTC
With B5, the binding signal is 3570 PBM fluorescence, median of replicate spots.

B6: Table S2 A row 464 (dsDNA)
DNA 1: AGCGACAGCGGATGCTCTCTGGCCGCAACATTCTTT
DNA 2: AAAGAATGTTGCGGCCAGAGAGCATCCGCTGTCGCT
Regarding B6, the binding signal was 2940 PBM fluorescence, median of replicate spots.

B7: Table S2 A row 843 (dsDNA)
DNA 1: CCTTGCTACAGGATGTTTTGACCACGAGCCCAGGAG
DNA 2: CTCCTGGGCTCGTGGTCAAAACATCCTGTAGCAAGG
As to B7, the binding signal was 2240 PBM fluorescence, median of replicate spots.

B8: Table S2 A row 762 (dsDNA)
DNA 1: CAGAAAGAGGAAATGATGCGAGTCCACACCGCAGGC
DNA 2: GCCTGCGGTGTGGACTCGCATCATTTCCTCTTTCTG
In the case of B8, the binding signal is 2620 PBM fluorescence, median of replicate spots.

B9: Table S2 A row 189 (dsDNA)
DNA 1: TGGCAGAGCACATCCTGTGCGGTTTTCAGTTTTGCT
DNA 2: AGCAAAACTGAAAACCGCACAGGATGTGCTCTGCCA
As for B9, the binding signal is 3840 PBM fluorescence, median of replicate spots.

B10: Table S2 A row 1407 (dsDNA)
DNA 1: TGTGTATGAGAACGGATATAGGTGGTTTTATAAGGA
DNA 2: TCCTTATAAAACCACCTATATCCGTTCTCATACACA
Take B10: the binding signal was 3120 PBM fluorescence, median of replicate spots.

B11: Table S2 A row 789 (dsDNA)
DNA 1: TCCCACTGCGACGGAAGCACAGCGGTTAAGATTGCA
DNA 2: TGCAATCTTAACCGCTGTGCTTCCGTCGCAGTGGGA
For B11, the binding signal is 2460 PBM fluorescence, median of replicate spots.

B12: Table S2 A row 1075 (dsDNA)
DNA 1: GTTGCAGGAAACGATGGGTTTTGTGGTATGAACTGC
DNA 2: GCAGTTCATACCACAAAACCCATCGTTTCCTGCAAC
B12: the binding signal was 2140 PBM fluorescence, median of replicate spots.

B13: Table S2 A row 1175 (dsDNA)
DNA 1: TTGCTCCCGGAAGCCCCGCCCGACCGCGGCTCCTGA
DNA 2: TCAGGAGCCGCGGTCGGGCGGGGCTTCCGGGAGCAA
B13: the binding signal was 1960 PBM fluorescence, median of replicate spots.

B14: Table S2 A row 240 (dsDNA)
DNA 1: CAGGCTCGCCACAGGGGAAGTGGTTAGGGCGGGTCC
DNA 2: GGACCCGCCCTAACCACTTCCCCTGTGGCGAGCCTG
In the case of B14, the binding signal is 2340 PBM fluorescence, median of replicate spots.

B15: Table S2 A row 1447 (dsDNA)
DNA 1: ACACCTCAGGAAGTGGCAGAGACCACAACAAGTCAG
DNA 2: CTGACTTGTTGTGGTCTCTGCCACTTCCTGAGGTGT
As to B15, the binding signal was 2380 PBM fluorescence, median of replicate spots.

B16: Table S2 A row 342 (dsDNA)
DNA 1: B15 DNA 1 with T6C
DNA 2: B15 DNA 2 with A31G
As for B16, the binding signal is 1810 PBM fluorescence, median of replicate spots.

B17: Table S2 A row 340 (dsDNA)
DNA 1: CAGAGCAGAGAGGAAGTGGTGGTGGCCACAGTCCCA
DNA 2: TGGGACTGTGGCCACCACCACTTCCTCTCTGCTCTG
Take B17: the binding signal is 2770 PBM fluorescence, median of replicate spots.

B18: Table S2 A row 1415 (dsDNA)
DNA 1: AGGCTGTGTGAAGGATGTGGTCAGGCGGAGGCCAGG
DNA 2: CCTGGCCTCCGCCTGACCACATCCTTCACACAGCCT
As to B18, the binding signal was 2710 PBM fluorescence, median of replicate spots.

B19: Table S2 A row 101 (dsDNA)
DNA 1: GAGGGACAGGATGCCGCCAGGAACCACAAGAGCTTC
DNA 2: GAAGCTCTTGTGGTTCCTGGCGGCATCCTGTCCCTC
For B19, the binding signal is 2530 PBM fluorescence, median of replicate spots.

B20: Table S2 A row 1686 (dsDNA)
DNA 1: TGAGCCTTGGAAGGAAATGATTCACCACAATACTGT
DNA 2: ACAGTATTGTGGTGAATCATTTCCTTCCAAGGCTCA
On to B20, for which the binding signal was 2590 PBM fluorescence, median of replicate spots.

B21: Table S2 A row 1754 (dsDNA)
DNA 1: AACAGTTGCATAGGAAGTGGTCAGCTCTCCTCCACC
DNA 2: GGTGGAGGAGAGCTGACCACTTCCTATGCAACTGTT
On to B21, for which the binding signal was 2050 PBM fluorescence, median of replicate spots.

B22: Table S2 A row 442 (dsDNA)
DNA 1: GGAAAAGGAAGTGGCTTTGACTTGCGGGCAGGGAGA
DNA 2: TCTCCCTGCCCGCAAGTCAAAGCCACTTCCTTTTCC
B22: the binding signal is 3710 PBM fluorescence, median of replicate spots.

B23: Table S2 A row 224 (dsDNA)
DNA 1: GACCAATGTAAACAAGGATGTGGGTTCTCCGGGCAC
DNA 2: GTGCCCGGAGAACCCACATCCTTGTTTACATTGGTC
As for B23, the binding signal is 2020 PBM fluorescence, median of replicate spots.

B24: Table S2 A row 195 (dsDNA)
DNA 1: GCTCCCGGATGTTCTGGGGATCTGCGGCCGCCTGGC
DNA 2: GCCAGGCGGCCGCAGATCCCCAGAACATCCGGGAGC
B24: the binding signal was 2440 PBM fluorescence, median of replicate spots.

B25: Table S2 A row 1256 (dsDNA)
DNA 1: AGCCGTCATTCAGGATGTGGTGACAGACATGGAGAC
DNA 2: GTCTCCATGTCTGTCACCACATCCTGAATGACGGCT
B25: the binding signal is 2490 PBM fluorescence, median of replicate spots.

B26: Table S2 A row 37 (dsDNA)
DNA 1: AGAATCGCATCAGGATGTGGTGAGGGAGCACATTTG
DNA 2: CAAATGTGCTCCCTCACCACATCCTGATGCGATTCT
For B26, the binding signal was 2110 PBM fluorescence, median of replicate spots.

B27: Table S2 A row 505 (dsDNA)
DNA 1: ACCCAGTAGGGGCCAGGATGTGGTGAAAAGAGAATT
DNA 2: AATTCTCTTTTCACCACATCCTGGCCCCTACTGGGT
B27: the binding signal was 3620 PBM fluorescence, median of replicate spots.

B28: Table S2 A row 979 (dsDNA)
DNA 1: GCGCGGCCCGGAAGGGGGTAACCGCTGAGTCTTTGA
DNA 2: TCAAAGACTCAGCGGTTACCCCCTTCCGGGCCGCGC
Regarding B28, the binding signal is 1910 PBM fluorescence, median of replicate spots.

B29: Table S2 A row 386 (dsDNA)
DNA 1: AACTGGGCGGAAAGAACGGCTAACCGCAAGCTGCCG
DNA 2: CGGCAGCTTGCGGTTAGCCGTTCTTTCCGCCCAGTT
In the case of B29, the binding signal is 3490 PBM fluorescence, median of replicate spots.

B30: Table S2 A row 1756 (dsDNA)
DNA 1: GCCAACAGGAAGCTGGAAGCCAACCGCACTGTGTGC
DNA 2: GCACACAGTGCGGTTGGCTTCCAGCTTCCTGTTGGC
Turning to B30, the binding signal was 3630 PBM fluorescence, median of replicate spots.

B31: Table S2 A row 1340 (dsDNA)
DNA 1: CATTTCAGTCCAGGATGTGGGTGCACACACCGCTTC
DNA 2: GAAGCGGTGTGTGCACCCACATCCTGGACTGAAATG
In the case of B31, the binding signal is 2860 PBM fluorescence, median of replicate spots.

B32: Table S2 A row 108 (dsDNA)
DNA 1: CACTTCCTGTCAAAGCCAGTTCCTTAACCGCTTAGG
DNA 2: CCTAAGCGGTTAAGGAACTGGCTTTGACAGGAAGTG
Consider B32, for which the binding signal is 2540 PBM fluorescence, median of replicate spots.

B33: Table S2 A row 1482 (dsDNA)
DNA 1: CCATCCAGGAAGCTTATGGTGCAACCGCAGTGTGCC
DNA 2: GGCACACTGCGGTTGCACCATAAGCTTCCTGGATGG
On to B33, for which the binding signal was 2210 PBM fluorescence, median of replicate spots.

B34: Table S2 A row 294 (dsDNA)
DNA 1: GCAGGACTTCCTGTGTTGTGCTAACCTCAAATTACA
DNA 2: TGTAATTTGAGGTTAGCACAACACAGGAAGTCCTGC
As for B34, the binding signal was 2660 PBM fluorescence, median of replicate spots.

B35: Table S2 A row 328 (dsDNA)
DNA 1: AGTAGAGGAGGAAGTTAAATGTGGTTTTCTGGGTGG
DNA 2: CCACCCAGAAAACCACATTTAACTTCCTCCTCTACT
Turning to B35, the binding signal is 2960 PBM fluorescence, median of replicate spots.

B36: Table S2 A row 1108 (dsDNA)
DNA 1: CATGGGGAGGAGGAAGTGGTGGCGGCCGCAGGCCAG
DNA 2: CTGGCCTGCGGCCGCCACCACTTCCTCCTCCCCATG
Consider B36, for which the binding signal is 2880 PBM fluorescence, median of replicate spots.

B37: Table S2 A row 1216 (dsDNA)
DNA 1: CCCGGCCACTTCCGCCTATTGCGGGCGTCGGCTAGG
DNA 2: CCTAGCCGACGCCCGCAATAGGCGGAAGTGGCCGGG
B37: the binding signal is 3350 PBM fluorescence, median of replicate spots.

B38: Table S2 A row 276 (dsDNA)
DNA 1: CAGCTGACAGGAAGGAGAGAACCACAGACAGTGCGA
DNA 2: TCGCACTGTCTGTGGTTCTCTCCTTCCTGTCAGCTG
On to B38, for which the binding signal was 2270 PBM fluorescence, median of replicate spots.

B39: Table S2 A row 315 (dsDNA)
DNA 1: GAAAAATGAAGTTTCCGCAGTAACCACAACACAGCC
DNA 2: GGCTGTGTTGTGGTTACTGCGGAAACTTCATTTTTC
In the case of B39, the binding signal is 1900 PBM fluorescence, median of replicate spots.

B40: Table S2 A row 692 (dsDNA)
DNA 1: TGCGAGGTTGCCAGGAAACCGCGAAGCCGAGGTCCC
DNA 2: GGGACCTCGGCTTCGCGGTTTCCTGGCAACCTCGCA
Take B40: the binding signal was 2180 PBM fluorescence, median of replicate spots.

B41: Table S2 A row 1390 (dsDNA)
DNA 1: CTGTGACACGTGCGGAAGCTGTGGTAAGTGCATCCA
DNA 2: TGGATGCACTTACCACAGCTTCCGCACGTGTCACAG
With B41, the binding signal is 3240 PBM fluorescence, median of replicate spots.

B42: Table S2 A row 1293 (dsDNA)
DNA 1: AGGTCGCCCTCCGGATGCGGTCCCCACACCGCCTGC
DNA 2: GCAGGCGGTGTGGGGACCGCATCCGGAGGGCGACCT
Take B42: the binding signal is 3170 PBM fluorescence, median of replicate spots.
